Molecular target: HLA-A*02:01 (Homo sapiens, UniProt P04439, D140Y/D185E/D98H/E176V/E277Q/G131W/G231S/I119V/I121R/I166T/I218V/L300P/L318F/N151K/N90K/P208A/P217A/Q86G/Q94H/R138H/R169H/T345S)
Test: MHC binding assay (UV-ligand exchange, beta2m ELISA, peptide exchange yield)
Conditions: binding of HLA-class I restricted peptides to HLA-A*02:01, ranged by peptide exchange yield (UV-ligand exchange, β2m ELISA)
From the text: Candidate peptides for T cell based therapies according to the present invention were further tested for their MHC binding capacity (affinity). The individual peptide-MHC complexes were produced by UV-ligand exchange, where a UV-sensitive peptide is cleaved upon UV-irradiation, and exchanged with the peptide of interest as analyzed. Only peptide candidates that can effectively bind and stabilize the peptide-receptive MHC molecules prevent dissociation of the MHC complexes. To determine the yield of the exchange reaction, an ELISA was performed based on the detection of the light chain (β2m) of stabilized MHC complexes. The assay was performed as generally described in Rodenko et al. (Rodenko et al., 2006).
96 well MAXISorp plates (NUNC) were coated over night with 2ug/ml streptavidin in PBS at room temperature, washed 4× and blocked for 1 h at 37° C. in 2% BSA containing blocking buffer. […] Peptide-MHC monomers of the UV-exchange reaction were diluted 100 fold in blocking buffer. Samples were incubated for 1 h at 37° C., washed four times, incubated with 2ug/ml HRP conjugated anti-82m for 1 h at 37° C., washed again and detected with TMB solution that is stopped with […]. Absorption was measured at 450 nm. Candidate peptides that show a high exchange yield (preferably higher than 50%, most preferred higher than 75%) are generally preferred for a generation and production of antibodies or fragments thereof, and/or T cell receptors or fragments thereof, as they show sufficient avidity to the MHC molecules and prevent dissociation of the MHC complexes.

Substance | Peptide exchange
431 (SLVNVVPKL; listed as Homo sapiens) [compound 431] | ″++″ (≥20% = ++)
157 (SLNDEVPEV; listed as Homo sapiens) [compound 157] | ″++″ (≥20% = ++)
620 (KLLNKIYEA; listed as Homo sapiens) [compound 620] | ″++++″ (≥75% = ++++)
525 (VLLEAGEGLVTI; listed as Homo sapiens) [compound 525] | ″+++″ (≥50% = +++)
209 (KLIESKHEV; listed as Homo sapiens) [compound 209] | ″++″ (≥20% = ++)
503 (SLNHFTHSV; listed as Homo sapiens) [compound 503] | ″+++″ (≥50% = +++)
537 (TLAPGEVLRSV; listed as Homo sapiens) [compound 537] | ″+++″ (≥50% = +++)
490 (FLLQHVQEL; listed as Homo sapiens) [compound 490] | ″+++″ (≥50% = +++)
185 (FLIDDKGYTL; listed as Homo sapiens) [compound 185] | ″++″ (≥20% = ++)
238 (YLISFQTHI; listed as Homo sapiens) [compound 238] | ″+++″ (≥50% = +++)
557 (KLYDDMIRL; listed as Homo sapiens) [compound 557] | ″+++″ (≥50% = +++)
565 (ALQETPTSV; listed as Homo sapiens) [compound 565] | ″++″ (≥20% = ++)
208 (KISPVTFSV; listed as Homo sapiens) [compound 208] | ″+++″ (≥50% = +++)
286 (YLFPGIPEL; listed as Homo sapiens) [compound 286] | ″+++″ (≥50% = +++)
70 (GLLDYPVGV; listed as Homo sapiens) [compound 70] | ″+++″ (≥50% = +++)
278 (QLLDVVLTI; listed as Homo sapiens) [compound 278] | ″++″ (≥20% = ++)
190 (FLSSLTETI; listed as Homo sapiens) [compound 190] | ″+++″ (≥50% = +++)
476 (ALMERTGYSMV; listed as Homo sapiens) [compound 476] | ″+++″ (≥50% = +++)
52 (FLLAHGLGFLL; listed as Homo sapiens) [compound 52] | ″++++″ (≥75% = ++++)
205 (SLYPGTETMGL; listed as Homo sapiens) [compound 205] | ″+++″ (≥50% = +++)

Substance | Peptide exchange
527 (FLLEPGNLEV; listed as Homo sapiens) [compound 527] | ″++++″ (≥75% = ++++)
429 (GLVNDLARV; listed as Homo sapiens) [compound 429] | ″++″ (≥20% = ++)
559 (VTVPPGPSL; listed as Homo sapiens) [compound 559] | ″++″ (≥20% = ++)
354 (LILEGVDTV; listed as Homo sapiens) [compound 354] | ″++″ (≥20% = ++)
66 (FLDENIGGVAV; listed as Homo sapiens) [compound 66] | ″+++″ (≥50% = +++)
353 (YLFEMDSSL; listed as Homo sapiens) [compound 353] | ″++″ (≥20% = ++)
549 (AMLENASDIKL; listed as Homo sapiens) [compound 549] | ″+++″ (≥50% = +++)
475 (LLLNEEALAQI; listed as Homo sapiens) [compound 475] | ″+++″ (≥50% = +++)
339 (GLWEIENNPTVKA; listed as Homo sapiens) [compound 339] | ″++++″ (≥75% = ++++)
248 (FLFPNQYVDV; listed as Homo sapiens) [compound 248] | ″+++″ (≥50% = +++)
441 (ALLENPKMEL; listed as Homo sapiens) [compound 441] | ″+++″ (≥50% = +++)
289 (VLLEIEDLQV; listed as Homo sapiens) [compound 289] | ″++++″ (≥75% = ++++)
145 (FLATSGTLAGI; listed as Homo sapiens) [compound 145] | ″++″ (≥20% = ++)
321 (GLFEDVTQPGILL; listed as Homo sapiens) [compound 321] | ″++++″ (≥75% = ++++)
45 (SLWQDIPDV; listed as Homo sapiens) [compound 45] | ″+++″ (≥50% = +++)
212 (ALWDQDNLSV; listed as Homo sapiens) [compound 212] | ″++″ (≥20% = ++)
32 (KLDDLTQDLTV; listed as Homo sapiens) [compound 32] | ″++″ (≥20% = ++)
449 (KLAEGLDIQL; listed as Homo sapiens) [compound 449] | ″+++″ (≥50% = +++)
427 (ALLPLSPYL; listed as Homo sapiens) [compound 427] | ″+++″ (≥50% = +++)
405 (ALYDVFLEV; listed as Homo sapiens) [compound 405] | ″++″ (≥20% = ++)

Substance | Peptide exchange
91 (IMQDFPAEIFL; listed as Homo sapiens) [compound 91] | ″++++″ (≥75% = ++++)
461 (VMFRTPLASV; listed as Homo sapiens) [compound 461] | ″++″ (≥20% = ++)
164 (ALLPQPKNLTV; listed as Homo sapiens) [compound 164] | ″+++″ (≥50% = +++)
447 (QLVPALAKV; listed as Homo sapiens) [compound 447] | ″++″ (≥20% = ++)
615 (VLPPDTDPA; listed as Homo sapiens) [compound 615] | ″++″ (≥20% = ++)
439 (YLLQEIYGI; listed as Homo sapiens) [compound 439] | ″+++″ (≥50% = +++)
222 (NLIENVQRL; listed as Homo sapiens) [compound 222] | ″++″ (≥20% = ++)
487 (LLINSVFHV; listed as Homo sapiens) [compound 487] | ″+++″ (≥50% = +++)
509 (FLFDTKPLIV; listed as Homo sapiens) [compound 509] | ″+++″ (≥50% = +++)
5 (HLTEVYPEL; listed as Homo sapiens) [compound 5] | ″+++″ (≥50% = +++)
108 (ALFPGVALLLA; listed as Homo sapiens) [compound 108] | ″++++″ (≥75% = ++++)
186 (TLFFQQNAL; listed as Homo sapiens) [compound 186] | ″++″ (≥20% = ++)
179 (KVLNELYTV; listed as Homo sapiens) [compound 179] | ″+++″ (≥50% = +++)
21 (VLDELDMEL; listed as Homo sapiens) [compound 21] | ″++″ (≥20% = ++)
231 (FLSPQQPPLLL; listed as Homo sapiens) [compound 231] | ″++″ (≥20% = ++)
245 (SMIDDLLGV; listed as Homo sapiens) [compound 245] | ″+++″ (≥50% = +++)
607 (RLYSGISGLEL; listed as Homo sapiens) [compound 607] | ″+++″ (≥50% = +++)
216 (NLWEDPYYL; listed as Homo sapiens) [compound 216] | ″+++″ (≥50% = +++)

From US10253076B2, “Peptides and combination of peptides for use in immunotherapy against ovarian cancer and other cancers” (immatics biotechnologies GmbH, priority 2015, dated 2019)
